Here are results for six substances from patent US20180312587A1.

In assay [1] the target is human SIRPα variant 2 (human) (UniProt P78324). The assay is described as follows: CELISA, CHO-K1 transfectants; extrapolated.
The target of assay [2] is human SIRPα variant 1 (human) (UniProt P78324). Kind of assay: CELISA, CHO-K1 transfectants; extrapolated.
Assay [3] has as its target hSIRPαV1(P74A) (human) (UniProt P78324). Kind of assay: CELISA, CHO-K1 transfectants.
Assay [4] deals with human SIRPα variant 1 (human) (UniProt P78324). Kind of assay: CELISA, CHO-K1 transfectants.
Assay [5] addresses hSIRPβ1 transcript variant 3/hSIRPβL (human) (UniProt Q5TFQ8). Kind of assay: CELISA, CHO-K1 transfectants; extrapolated.
The target in assay [6] is human SIRPβ1 (human) (UniProt O00241). Kind of assay: CELISA, CHO-K1 transfectants; extrapolated.
The target in assay [7] is human SIRPγ (human) (UniProt Q9P1W8). Kind of assay: CELISA, CHO-K1 transfectants; extrapolated.
In assay [8] the target is human SIRPβ1 (human) (UniProt O00241). Kind of assay: CELISA, CHO-K1 transfectants.
Assay [9] addresses hSIRPαV4 (NA11832_V4) (human) (UniProt P78324). The assay is described as follows: CELISA, CHO-K1 transfectants; average of two experiments.
The target in assay [10] is hSIRPαV3 (NA07056_V3) (human) (UniProt P78324). The description is as above.
The target of assay [11] is human SIRPα variant 2 (human) (UniProt P78324). Described as above.
The target in assay [12] is hSIRPαV6 (NA18507_V6) (human) (UniProt P78324). Described as above.
The target of assay [13] is hSIRPαV9 (NA18943_V9) (human) (UniProt P78324). The assay is described as above.
The target of assay [14] is human SIRPα variant 1 (human) (UniProt P78324). Described as above.
The target of assay [15] is hSIRPαV5 (NA18502_V5) (human) (UniProt P78324). Described as above.
The target in assay [16] is hSIRPαV8 (NA18570_V8) (human) (UniProt P78324). Described as above.
For assay [17], the target named is hSIRPβ1 transcript variant 3/hSIRPβL (human) (UniProt Q5TFQ8). The assay is described as follows: CELISA, CHO-K1 transfectants.
The target of assay [18] is human SIRPβ1 (human) (UniProt O00241). The assay is described as follows: CELISA, CHO-K1 transfectants. This is another data set of the same source.
In assay [19] the target is human SIRPα variant 2 (human) (UniProt P78324). The assay is described as follows: CELISA, CHO-K1 transfectants.
The target in assay [20] is human SIRPγ (human) (UniProt Q9P1W8). The assay is described as follows: CELISA, CHO-K1 transfectants.
The target in assay [21] is human SIRPα variant 1 (human) (UniProt P78324). The assay is described as follows: CELISA, CHO-K1 transfectants. This is another data set of the same source.
The target of another assay is hSIRP-VβC1βC2γ (human) (UniProt O00241). Kind of assay: CELISA, CHO-K1 transfectants, domain exchange study.
In another assay the target is hSIRP-VγC1βC2β (human) (UniProt O00241). The description is as above.
For assay [22], the target named is human SIRPβ1 (human) (UniProt O00241). Described as above.
Assay [23] has as its target human SIRPα variant 2 (human) (UniProt P78324). Described as above.
In a further assay the target is hSIRP-VβC1γC2β (human) (UniProt O00241). The assay is described as above.
Assay [24] has as its target human SIRPα variant 1 (human) (UniProt P78324). Described as above.
A further assay addresses hSIRPα-VαC1αC2β (human) (UniProt P78324). The assay is described as above.
In the next assay the target is hSIRPα-VβC1αC2α (human) (UniProt P78324). The assay is described as above.
For assay [25], the target named is human SIRPβ1 (human) (UniProt O00241). The description is as above. This is another data set of the same source.
The next assay has as its target hSIRPα-VαC1βC2α (human) (UniProt P78324). The description is as above.
Assay [26] concerns the target human SIRPα variant 2 (human) (UniProt P78324). The assay is described as above. The source holds these as a separate data set.
In assay [27] the target is human SIRPα variant 1 (human) (UniProt P78324). The description is as above. This is another data set of the same source.
Assay [28] concerns the target hSIRPαV1(P74A) (human) (UniProt P78324). Kind of assay: CELISA, CHO-K1 transfectants, point mutant study.
In assay [29] the target is human SIRPα variant 1 (human) (UniProt P78324). The assay is described as follows: CELISA, CHO-K1 transfectants, point mutant study.
For assay [30], the target named is hSIRPαV1(P74A) (human) (UniProt P78324). The assay is described as follows: CELISA, CHO-K1 transfectants, point mutant study. This is another data set of the same source.
Assay [31] deals with human SIRPβ1 (human) (UniProt O00241). The assay is described as follows: CELISA, CHO-K1 transfectants, point mutant study.
In assay [32] the target is human SIRPα variant 1 (human) (UniProt P78324). The assay is described as follows: CELISA, CHO-K1 transfectants, point mutant study. The source holds these as a separate data set.
Assay [33] concerns the target human SIRPβ1 (human) (UniProt O00241). Kind of assay: CELISA, CHO-K1 transfectants; n = 1.
Assay [34] addresses human SIRPα variant 2 (human) (UniProt P78324). Kind of assay: CELISA, CHO-K1 transfectants; n = 1.
Assay [35] has as its target human SIRPγ (human) (UniProt Q9P1W8). Kind of assay: CELISA, CHO-K1 transfectants; n = 1.
Assay [36] has as its target human SIRPα variant 1 (human) (UniProt P78324). The assay is described as follows: CELISA, CHO-K1 transfectants; n = 1.

human SIRPα variant 1 (human), sequence (P78324 31-504 limits assumed, stated change not applied): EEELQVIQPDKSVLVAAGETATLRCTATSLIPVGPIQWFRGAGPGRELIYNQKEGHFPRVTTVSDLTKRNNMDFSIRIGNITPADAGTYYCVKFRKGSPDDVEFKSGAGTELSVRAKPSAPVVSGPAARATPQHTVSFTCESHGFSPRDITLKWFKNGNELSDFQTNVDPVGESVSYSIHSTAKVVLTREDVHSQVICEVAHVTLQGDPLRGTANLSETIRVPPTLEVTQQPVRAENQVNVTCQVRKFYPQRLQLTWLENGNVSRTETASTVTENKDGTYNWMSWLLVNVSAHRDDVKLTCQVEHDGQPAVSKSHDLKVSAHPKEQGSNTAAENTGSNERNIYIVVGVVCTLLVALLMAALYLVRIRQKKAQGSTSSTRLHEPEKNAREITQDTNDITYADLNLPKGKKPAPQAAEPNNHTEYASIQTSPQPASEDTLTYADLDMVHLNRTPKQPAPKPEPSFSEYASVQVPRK
human SIRPα variant 2 (human), sequence (P78324 other isoform, or with tags, fused parts or gaps mutant limits assumed): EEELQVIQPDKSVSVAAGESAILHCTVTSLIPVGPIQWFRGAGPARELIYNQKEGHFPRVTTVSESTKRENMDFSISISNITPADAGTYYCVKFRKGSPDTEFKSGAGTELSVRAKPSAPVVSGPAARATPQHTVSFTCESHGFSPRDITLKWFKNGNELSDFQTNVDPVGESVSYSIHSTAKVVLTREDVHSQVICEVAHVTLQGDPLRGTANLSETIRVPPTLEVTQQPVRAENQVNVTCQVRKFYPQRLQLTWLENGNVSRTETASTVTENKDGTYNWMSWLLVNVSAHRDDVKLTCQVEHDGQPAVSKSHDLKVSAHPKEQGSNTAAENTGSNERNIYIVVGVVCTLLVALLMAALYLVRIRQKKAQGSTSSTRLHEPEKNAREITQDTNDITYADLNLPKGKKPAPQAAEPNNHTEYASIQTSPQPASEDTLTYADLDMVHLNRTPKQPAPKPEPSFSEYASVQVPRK
hSIRPαV1(P74A) (human), sequence (P78324 31-504 P74A limits assumed): as the sequence (P78324 31-504 limits assumed, stated change not applied) above, with P44A counted along it
human SIRPβ1 (human), sequence (O00241 30-398 limits assumed): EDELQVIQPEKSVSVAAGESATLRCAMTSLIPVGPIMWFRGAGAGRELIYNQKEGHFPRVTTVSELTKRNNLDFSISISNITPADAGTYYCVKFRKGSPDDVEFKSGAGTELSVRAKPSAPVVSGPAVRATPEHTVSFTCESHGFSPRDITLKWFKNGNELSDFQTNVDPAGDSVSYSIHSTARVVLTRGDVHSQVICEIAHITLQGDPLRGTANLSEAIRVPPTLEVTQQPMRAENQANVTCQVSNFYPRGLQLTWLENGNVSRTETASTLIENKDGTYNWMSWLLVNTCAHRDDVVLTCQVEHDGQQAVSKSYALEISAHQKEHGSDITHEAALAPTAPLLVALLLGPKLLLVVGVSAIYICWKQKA
human SIRPγ (human), sequence (Q9P1W8 29-387 limits assumed): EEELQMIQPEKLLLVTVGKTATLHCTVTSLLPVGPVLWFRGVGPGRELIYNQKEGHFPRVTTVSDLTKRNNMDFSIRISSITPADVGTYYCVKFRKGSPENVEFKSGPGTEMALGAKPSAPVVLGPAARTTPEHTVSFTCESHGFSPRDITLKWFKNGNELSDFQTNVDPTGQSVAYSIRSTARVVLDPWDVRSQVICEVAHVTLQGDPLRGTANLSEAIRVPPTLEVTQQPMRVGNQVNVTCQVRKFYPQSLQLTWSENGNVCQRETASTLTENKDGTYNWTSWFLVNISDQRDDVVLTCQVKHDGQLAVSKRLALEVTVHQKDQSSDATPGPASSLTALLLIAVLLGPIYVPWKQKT
hSIRPβ1 transcript variant 3/hSIRPβL (human), sequence (Q5TFQ8 30-398 limits assumed, change not shown): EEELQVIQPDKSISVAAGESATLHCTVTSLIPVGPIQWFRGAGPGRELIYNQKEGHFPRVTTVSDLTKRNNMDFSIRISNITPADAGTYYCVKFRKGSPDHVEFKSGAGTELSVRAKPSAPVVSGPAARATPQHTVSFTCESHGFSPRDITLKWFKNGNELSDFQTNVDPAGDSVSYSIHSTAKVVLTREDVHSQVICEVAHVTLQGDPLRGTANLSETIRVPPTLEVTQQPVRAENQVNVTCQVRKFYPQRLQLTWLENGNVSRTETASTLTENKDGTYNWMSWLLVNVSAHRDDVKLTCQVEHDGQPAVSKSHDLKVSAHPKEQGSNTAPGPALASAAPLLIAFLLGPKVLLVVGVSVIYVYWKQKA
hSIRPαV9 (NA18943_V9) (human), sequence (P78324 31-504 G109S limits assumed): as the sequence (P78324 31-504 limits assumed, stated change not applied) above, with G79S counted along it
hSIRPαV3 (NA07056_V3) (human), sequence (P78324 other isoform, or with tags, fused parts or gaps limits assumed): as the sequence (P78324 other isoform, or with tags, fused parts or gaps mutant limits assumed) above, with H24L counted along it
hSIRPαV8 (NA18570_V8) (human), sequence (P78324 other isoform, or with tags, fused parts or gaps limits assumed): as the sequence (P78324 other isoform, or with tags, fused parts or gaps mutant limits assumed) above, with S14L, S20T, I22T, H24R, V27A counted along it
hSIRPαV4 (NA11832_V4) (human), sequence (P78324 other isoform, or with tags, fused parts or gaps limits assumed): as the sequence (P78324 31-504 limits assumed, stated change not applied) above, with E3G, L14S, T20S, T22I, R24H counted along it
hSIRPα-VαC1βC2α (human), sequence (P78324 other isoform, or with tags, fused parts or gaps limits assumed): as the sequence (P78324 31-504 limits assumed, stated change not applied) above, with A128V, Q133E, V171A, E173D, K184R, E190G, V200I, V203I counted along it

As for anti-hSIRPα (clone D6I3M) (antibody), the half-maximal effective concentration (EC50) (commonly the concentration giving half of the maximal effect) in assay [1] is 8760 pM; in assay [2] it was 18700 pM; with hSIRPαV1(P74A) (human) [3], more than 122000 pM; in assay [4], more than 6410 pM.

Regarding anti-hSIRPα (clone EPR16264) (antibody), the concentration giving a half-maximal response (EC50) in assay [1] is 2450 pM; with hSIRPαV1(P74A) (human) [3], more than 2000 pM; in [4], more than 1170 pM.

As to anti-hSIRPα (clone REA144) (antibody), the concentration giving a half-maximal response (EC50) was 2150 pM in assay [5]; 4530 pM with human SIRPβ1 (human) [6]; 3270 pM in assay [1]; 3210 pM with human SIRPγ (human) [7]; 5240 pM in assay [2]; more than 4790 pM with hSIRPαV1(P74A) (human) [3]. For the same substance, the EC50 with human SIRPβ1 (human) [8] is more than 3080 pM; in assay [4] it was more than 3660 pM.

With anti-hSIRPα (clone SE5A5) (antibody), the EC50 in [9] worked out at 256 pM; in assay [10], 226 pM; in assay [11], 200 pM; in [12] it was 98 pM; in [13], 260 pM; in assay [14], 327 pM. Moreover, the 50% effective concentration (EC50) in [15] was found to be 276 pM; in assay [16], 300 pM; in [17], 122 pM; with human SIRPβ1 (human) [18], 185 pM; in assay [19], 186 pM; in the assay with human SIRPγ (human) [20] it was 200 pM. The EC50 in assay [21] is 372 pM; with hSIRP-VβC1βC2γ (human), 231 pM; with hSIRP-VγC1βC2β (human), 287 pM; with human SIRPβ1 (human) [22] it was 249 pM; in [23], 224 pM; with hSIRP-VβC1γC2β (human) it was 309 pM. Besides, the 50% effective concentration (EC50) in assay [24] is 350 pM; with hSIRPα-VαC1αC2β (human), 127 pM; with hSIRPα-VβC1αC2α (human), 121 pM; with human SIRPβ1 (human) [25] it was 180 pM; in the assay with hSIRPα-VαC1βC2α (human), 135 pM; in assay [26], 84 pM. Moreover, the EC50 in assay [27] stood at 117 pM; with hSIRPαV1(P74A) (human) [28], 149 pM; in assay [29] it was 163 pM; in the assay with hSIRPαV1(P74A) (human) [30], 150 pM; in the assay with human SIRPβ1 (human) [31], 156 pM; in assay [32] it was 164 pM. For the same substance, the EC50 came out at 192 pM with human SIRPβ1 (human) [33]; 200 pM in assay [34]; 168 pM with human SIRPγ (human) [35]; 304 pM in [36]; 207 pM in the assay with hSIRPαV1(P74A) (human) [3]; 105 pM with human SIRPβ1 (human) [8]. For the same substance, the concentration for a half-maximal effect (EC50) in assay [4] came to 156 pM.

For the substance anti-hSIRPα (clone SE7C2) (antibody), the EC50 in assay [19] was 300 pM; with human SIRPγ (human) [20], 1520 pM; in assay [5], 26800 pM; in assay [2], 1270 pM; with hSIRPαV1(P74A) (human) [3], more than 6140 pM; in assay [4] it was more than 7010 pM.

anti-hSIRPγ (clone LSB2.20) (antibody): the EC50 in the assay with human SIRPγ (human) [35] was 265 pM.
